{"source": "patent US8840892B2", "about": "“Method of administering antibiotic therapy for treating intracellular infectious diseases” (Universidad Nacional Autónoma de México, priority 2003, dated 2014)", "key": {"[1]": {"details": "mouse, in vivo"}, "[2]": {"tested_on": "Mycobacterium tuberculosis", "test": "experimental model of pulmonary tuberculosis in BALB/c mice", "type": "in vivo"}, "PGE formation (COX-2)": {"tested_on": "PGE formation (COX-2)", "test": "inhibition of PGE formation by selective COX-2 inhibitors"}, "TGF-β": {"tested_on": "TGF-β", "details": "recombinant soluble form, in vitro; cited from earlier work"}}, "data": [{"molecule": "COc1ccc2c(c1)c(CC(=O)O)c(C)n2C(=O)c1ccc(Cl)cc1", "note": "[indometacine]", "values": [{"measurement": "gastric side effect", "setting": "[1]", "result": "extensive erosive gastritis"}]}, {"molecule": "O=C(O)c1cccnc1Nc1cccc(C(F)(F)F)c1", "note": "[niflumic acid, reference compound]", "values": [{"measurement": "bacteria colony forming units (CFU) in lung", "setting": "[2]; mouse, in vivo", "result": "decreased significantly"}, {"measurement": "decrease of the area affected by pneumonia in relation to the control group", "setting": "[2]; mouse, in vivo", "result": 25, "unit": "%"}, {"measurement": "expression of IL-2, TNF-α, IFN-γ and nitric acid synthetase (increase) and interleukin 10 (decrease)", "setting": "[2]; mouse, in vivo", "result": "same pattern"}, {"measurement": "inhibition of the formation of PGE", "setting": "PGE formation (COX-2)", "result": 98, "unit": "%"}]}, {"molecule": "soluble betaglycan: soluble (recombinant) ectodomain of betaglycan, TGF-β type III receptor; natural antagonist of TGF-β (protein, UniProt Q03167 21-787, looked up, extracellular domain) extracellular domain: GPEPGALCELSPVSASHPVQALMESFTVLSGCASRGTTGLPQEVHVLNLRTAGQGPGQLQREVTLHLNPISSVHIHHKSVVFLLNSPHPLVWHLKTERLATGVSRLFLVSEGSVVQFSSANFSLTAETEERNFPHGNEHLLNWARKEYGAVTSFTELKIARNIYIKVGEDQVFPPKCNIGKNFLSLNYLAEYLQPKAAEGCVMSSQPQNEEVHIIELITPNSNPYSAFQVDITIDIRPSQEDLEVVKNLILILKCKKSVNWVIKSFDVKGSLKIIAPNSIGFGKESERSMTMTKSIRDDIPSTQGNLVKWALDNGYSPITSYTMAPVANRFHLRLENNAEEMGDEEVHTIPPELRILLDPGALPALQNPPIRGGEGQNGGLPFPFPDISRRVWNEEGEDGLPRPKDPVIPSIQLFPGLREPEEVQGSVDIALSVKCDNEKMIVAVEKDSFQASGYSGMDVTLLDPTCKAKMNGTHFVLESPLNGCGTRPRWSALDGVVYYNSIVIQVPALGDSSGWPDGYEDLESGDNGFPGDMDEGDASLFTRPEIVVFNCSLQQVRNPSSFQEQPHGNITFNMELYNTDLFLVPSQGVFSVPENGHVYVEVSVTKAEQELGFAIQTCFISPYSNPDRMSHYTIIENICPKDESVKFYSPKRVHFPIPQADMDKKRFSFVFKPVFNTSLLFLQCELTLCTKMEKHPQKLPKCVPPDEACTSLDASIIWAMMQNKKTFTKPLAVIHHEAESKEKGPSMKEPNPISPPIFHGLDTLTV", "values": [{"measurement": "neutralization of the effects of TGF-β", "setting": "TGF-β", "result": "potent neutralizing agent"}, {"measurement": "extent of pneumonia (in words)", "setting": "[2]; advanced phase of infection", "result": "increased"}, {"measurement": "bacteria colony forming units (CFU) in lung", "setting": "[2]; after 30 days of treatment, vs untreated control", "result": "decreased significantly"}, {"measurement": "CFU less than control group", "setting": "[2]; after 60 days of treatment", "result": 50, "unit": "%"}, {"measurement": "more pneumonia than the control group", "setting": "[2]; after two months of treatment, increase vs untreated control", "result": 30, "unit": "%"}, {"measurement": "bacillary load / amount of tuberculosis bacilli in the lung (in words)", "setting": "[2]; intraperitoneal, advanced phase of the disease", "result": "significant decrease"}]}]}
